Assay results published in the supplement of paper PMC10724198.
± gives the standard deviation of the averaged measurements.

The sequences below were run on Saccharomyces cerevisiae (assay: protein stability index of tFT-peptide fusion (C-terminal peptide) (PSI (0-1 scale)); higher = more stable (slower turnover)). Settings: genetic background: wild type; temperature: 30 C.
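Further: PSI is a weighted mean of sequencing reads over stability bins, variants kept only with over 10 reads, mCherry proximal and sfGFP distal, peptide attached via GGGS linker.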

Row | Sequence | protein stability index
1 | CVYGILPRPPDF | 0.671 ± 0.035
2 | VLGGGLGVLTWV | 0.753 ± 0.018
3 | PAKNKKKKKNRK | 0.6911 ± 0.0031
4 | RLSTPPAPQRPS | 0.666 ± 0.013
5 | YRRGLGEYRTRS | 0.688 ± 0.059
6 | SCGVTRVGALST | 0.664 ± 0.013
7 | REWGWGALVMWG | 0.638 ± 0.042
8 | VALLLGSRFDFT | 0.6627 ± 0.0023
9 | RGRWLIVHCPTQ | 0.605 ± 0.034
10 | EPTLLVRMVANR | 0.529 ± 0.026
11 | WFHPAPLCGPQS | 0.662 ± 0.063
12 | WGQCLYRSAGSV | 0.715 ± 0.055
13 | SVPSLPLSFPPF | 0.787 ± 0.032
14 | GPGLSPPYPSPA | 0.704 ± 0.029
15 | AKSGEVIGSWFG | 0.67127 ± 0.00043
16 | PGSYLDAIVYHR | 0.701 ± 0.01
17 | PSLPPPPHSAFC | 0.698 ± 0.073
18 | TWSLLHDTQTWD | 0.78 ± 0.068
19 | PLSTFSLSSFTV | 0.691 ± 0.045
20 | CECRCECGIGDK | 0.632 ± 0.096
21 | LGVAMSKCLEFR | 0.684 ± 0.0083
22 | SGVSICLSGMGK | 0.611 ± 0.017
23 | LSRPCPFYPPPR | 0.701 ± 0.037
24 | DNSSLGSIGTDI | 0.645 ± 0.046
25 | SRVCPLLAPSLL | 0.671 ± 0.067

Row | Sequence | protein stability index
26 | PLPPPGRPPLLP | 0.639 ± 0.12
27 | VFFLSYGPFLAM | 0.5963 ± 0.0038
28 | PPPLSPPRPPRH | 0.701 ± 0.022
29 | SYVLLLYTGCRM | 0.585 ± 0.02
30 | LISHHSEFPVIL | 0.744 ± 0.031
31 | PQLPSRVYPSLP | 0.695 ± 0.027
32 | EGEGPRGNGSGA | 0.648 ± 0.043
33 | PPTFLLRSAPSL | 0.669 ± 0.043
34 | EHLQTHYLWSTG | 0.701 ± 0.062
35 | SFRFVLVQCSGV | 0.5601 ± 0.0046
36 | PSWVFRCAPSPF | 0.505 ± 0.084
37 | SRYYMDRGTLLE | 0.625 ± 0.018
38 | RLVGPFSSLRLF | 0.649 ± 0.0072
39 | GILRSDAVWSFI | 0.699 ± 0.042
40 | GSGVFEASAWGA | 0.679 ± 0.0069
41 | KENYGIKTKDRK | 0.696 ± 0.075
42 | GGVEWEQQGRKE | 0.706 ± 0.072
43 | KKEIGGSNWNKK | 0.632 ± 0.09
44 | SEHSTYFSRNCF | 0.726 ± 0.032
45 | KLEERIKRTEDK | 0.7219 ± 0.0018
46 | SLVLLNQHARER | 0.79 ± 0.036
47 | GVSLREASVAAI | 0.7104 ± 0.0055
48 | PPTRSLYLLPLI | 0.6983 ± 0.0035
49 | ESEKKHNKKRRV | 0.654 ± 0.069
50 | RFRCGLPMQERT | 0.689 ± 0.064

Row | Sequence | protein stability index
51 | WYTPDCLHCGPA | 0.688 ± 0.013
52 | VCGQRLKDVGVG | 0.499 ± 0.037
53 | FRRRYGCLLRGE | 0.6573 ± 0.004
54 | RPDACTRFGLRV | 0.678 ± 0.013
55 | SVYLPLGVLQCI | 0.577 ± 0.032
56 | GGPVGGGGGSGE | 0.641 ± 0.032
57 | ASPRLPSPLSLT | 0.718 ± 0.12
58 | GTSPSSVRPLCG | 0.7043 ± 0.0069
59 | RYCSLARSCPSG | 0.678 ± 0.027
60 | GVGREGGCWRTG | 0.702 ± 0.11
61 | VSCFVWFGFSCI | 0.5202 ± 0.0034
62 | PPSPPSSHPLLP | 0.679 ± 0.0078
63 | TRRPTPPSRASL | 0.718 ± 0.049
64 | PRPPLRATASVV | 0.699 ± 0.033
65 | YTESQVCLLSAY | 0.509 ± 0.0088
66 | EVWQGRLKGVLG | 0.691 ± 0.031
67 | PPDGRPQEVWVP | 0.72 ± 0.037
68 | LGEYNRKKKPRI | 0.6446 ± 0.0034
69 | DICSNSGRQRFL | 0.685 ± 0.013
70 | PRSFPPRPPPPV | 0.726 ± 0.051
71 | PPLPSPASPRTP | 0.721 ± 0.031
72 | GQSVYRRWGCLK | 0.68 ± 0.01
73 | LVGGGVGVGSLV | 0.66 ± 0.011
